Broadly, the stoichiometry N is the number of molecules, sites or subunits per partner or assembly.

The results in this text go back to publication PMC9400078.

In test [1] the target is CelTOS double mutant Lys122Asp, Leu164Asp (Plasmodium vivax). As to the kind of experiment: SEC. On the technique in general: Size exclusion chromatography separates by hydrodynamic size, large species first.
The target of test [2] is CelTOS N-terminal truncation mutant (Gly51–Asp196) (Plasmodium vivax). As to the kind of experiment: SEC.

With “CelTOS double mutant Lys122Asp, Leu164Asp (natural protein)”, in test [1], the stoichiometry N stood at 2.
In turn, “CelTOS N-terminal truncation mutant (Gly51–Asp196) (domain or fragment)” yielded a stoichiometry N in test [2] of 2.
